# Literature values in publication PMC5912896.
# Target: Akt PH domain (Homo sapiens) (UniProt P31749)
# Sequence of UniProt P31749 (P31749 2-111): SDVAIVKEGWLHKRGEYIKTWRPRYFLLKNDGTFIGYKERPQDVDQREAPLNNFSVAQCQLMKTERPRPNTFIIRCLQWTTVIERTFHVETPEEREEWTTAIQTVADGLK
substance,measurement,value
Akt-in peptide (TCL1 A strand),Kd,18 µM
